Measured values published in paper PMC5913127.

Legend:
[1] = biological target: dimeric Aβ_(1-15) multi-antigen peptide (MAP); test: not stated; binding of antibody to branched multi-antigen peptides of Aβ1-15, EC50 (Fig. S5)
[2] = biological target: ^chaducanumab (murine chimeric IgG2a/kappa version of aducanumab) (human | murine); test: ELISA; antibody (5 μg/mL) captured on coated goat anti-mouse IgG Fcγ antibody; serially diluted monomeric biotin-conjugated Aβ1-40 in PBS with 1% BSA; HRP-streptavidin detection
Aβ_(1-28) peptide = test: SPR
Aβ_(1-16) peptide = Aβ_(1-16) peptide (UniProt P05067); test: MST

Aβ_(1-28) peptide, sequence (P05067 672-699): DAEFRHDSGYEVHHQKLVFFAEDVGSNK

^chaducanumab (murine chimeric IgG2a/kappa version of aducanumab) (antibody)
EC50 [1]: > 1000 nM

biotin-conjugated Aβ_(1-40) (Aβ_(1-40)-Lys-Biotin), monomeric (peptide)
EC50 [2]: > 1000 nM

chgantenerumab
Kd (Aβ_(1-28) peptide): 1300 nM
Kd (Aβ_(1-16) peptide): 96.6 nM
